Measurements from PMC3702553 (2013).

B1: full length wild-type GST-SNX9 (sorting nexin 9) [not stated] / clathrin heavy chain (CHC) [human (endogenous in HeLa)] (parent complex)
chain 1: MATKARVMYDFAAEPGNNELTVNEGEIITITNPDVGGGWLEGRNIKGERGLVPTDYVEILPSDGKDQFSCGNSVADQAFLDSLSASTAQASSSAASNNHQVGSGNDPWSAWSASKSGNWESSEGWGAQPEGAGAQRNTNTPNNWDTAFGHPQAYQGPATGDDDDWDEDWDGPKSSSYFKDSESADAGGAQRGNSRASSSSMKIPLNKFPGFAKPGTEQYLLAKQLAKPKEKIPIIVGDYGPMWVYPTSTFDCVVADPRKGSKMYGLKSYIEYQLTPTNTNRSVNHRYKHFDWLYERLLVKFGSAIPIPSLPDKQVTGRFEEEFIKMRMERLQAWMTRMCRHPVISESEVFQQFLNFRDEKEWKTGKRKAERDELAGVMIFSTMEPEAPDLDLVEIEQKCEAVGKFTKAMDDGVKELLTVGQEHWKRCTGPLPKEYQKIGKALQSLATVFSSSGYQGETDLNDAITEAGKTYEEIASLVAEQPKKDLHFLMECNHEYKGFLGCFPDIIGTHKGAIEKVKESDKLVATSKITLQDKQNMVKRVSIMSYALQAEMNHFHSNRIYDYNSVIRLYLEQQVQFYETIAEKLRQALSRFPVM
chain 2: MAQILPIRFQEHLQLQNLGINPANIGFSTLTMESDKFICIREKVGEQAQVVIIDMNDPSNPIRRPISADSAIMNPASKVIALKAGKTLQIFNIEMKSKMKAHTMTDDVTFWKWISLNTVALVTDNAVYHWSMEGESQPVKMFDRHSSLAGCQIINYRTDAKQKWLLLTGISAQQNRVVGAMQLYSVDRKVSQPIEGHAASFAQFKMEGNAEESTLFCFAVRGQAGGKLHIIEVGTPPTGNQPFPKKAVDVFFPPEAQNDFPVAMQISEKHDVVFLITKYGYIHLYDLETGTCIYMNRISGETIFVTAPHEATAGIIGVNRKGQVLSVCVEEENIIPYITNVLQNPDLALRMAVRNNLAGAEELFARKFNALFAQGNYSEAAKVAANAPKGILRTPDTIRRFQSVPAQPGQTSPLLQYFGILLDQGQLNKYESLELCRPVLQQGRKQLLEKWLKEDKLECSEELGDLVKSVDPTLALSVYLRANVPNKVIQCFAETGQVQKIVLYAKKVGYTPDWIFLLRNVMRISPDQGQQFAQMLVQDEEPLADITQIVDVFMEYNLIQQCTAFLLDALKNNRPSEGPLQTRLLEMNLMHAPQVADAILGNQMFTHYDRAHIAQLCEKAGLLQRALEHFTDLYDIKRAVVHTHLLNPEWLVNYFGSLSVEDSLECLRAMLSANIRQNLQICVQVASKYHEQLSTQSLIELFESFKSFEGLFYFLGSIVNFSQDPDVHFKYIQAACKTGQIKEVERICRESNCYDPERVKNFLKEAKLTDQLPLIIVCDRFDFVHDLVLYLYRNNLQKYIEIYVQKVNPSRLPVVIGGLLDVDCSEDVIKNLILVVRGQFSTDELVAEVEKRNRLKLLLPWLEARIHEGCEEPATHNALAKIYIDSNNNPERFLRENPYYDSRVVGKYCEKRDPHLACVAYERGQCDLELINVCNENSLFKSLSRYLVRRKDPELWGSVLLESNPYRRPLIDQVVQTALSETQDPEEVSVTVKAFMTADLPNELIELLEKIVLDNSVFSEHRNLQNLLILTAIKADRTRVMEYINRLDNYDAPDIANIAISNELFEEAFAIFRKFDVNTSAVQVLIEHIGNLDRAYEFAERCNEPAVWSQLAKAQLQKGMVKEAIDSYIKADDPSSYMEVVQAANTSGNWEELVKYLQMARKKARESYVETELIFALAKTNRLAELEEFINGPNNAHIQQVGDRCYDEKMYDAAKLLYNNVSNFGRLASTLVHLGEYQAAVDGARKANSTRTWKEVCFACVDGKEFRLAQMCGLHIVVHADELEELINYYQDRGYFEELITMLEAALGLERAHMGMFTELAILYSKFKPQKMREHLELFWSRVNIPKVLRAAEQAHLWAELVFLYDKYEEYDNAIITMMNHPTDAWKEGQFKDIITKVANVELYYRAIQFYLEFKPLLLNDLLMVLSPRLDHTRAVNYFSKVKQLPLVKPYLRSVQNHNNKSVNESLNNLFITEEDYQALRTSIDAYDNFDNISLAQRLEKHELIEFRRIAAYLFKGNNRWKQSVELCKKDSLYKDAMQYASESKDTELAEELLQWFLQEEKRECFGACLFTCYDLLRPDVVLETAWRHNIMDFAMPYFIQVMKEYLTKVDKLDASESLRKEEEQATETQPIVYGQPQLMLTAGPSVAVPPQAPFGYGYTAPPYGQPQPGFGYSM

Variants of: B1
Assay: GST pull-down, densitometry of immunoblots; lysates from asynchronously growing HeLa cells; 3-4 independent experiments; parent: 1; read off a plot

| Variant | ratio to parent |
| --- | --- |
| chain 1 W165S, chain 1 W169S | ~0.29 |
| chain 1 W165S | ~0.05 |

Next, values leading:

| ratio to parent | Variant |
| --- | --- |
| ~0.44 | chain 1 W108S |
| ~0.06 | chain 1 W108S, chain 1 W111S |
